We go through 21 compounds from patent US9845340B2, “Peptides that specifically bind HGF receptor (cMet) and uses thereof” (Dyax Corp., priority 2003, dated 2017).

One test concerns the target cMet-Fc fusion protein (Homo sapiens, UniProt P08581). The test is described as follows: Protein phage ELISA: peptide-displaying phage binding to soluble cMet-Fc versus TRAIL-Fc. Particulars: phage isolate; cMet-Fc vs. TRAIL-Fc. An outline of the steps: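 Plates coated with 0.5 μg/mL cMet-Fc or, as background, TRAIL-Fc, then blocked with 3% BSA in PBST. Peptide-displaying phage bound 2 h at room temperature. Detection with HRP-anti-M13 antibody.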
(An ELISA detects its analyte on a solid surface through an enzyme-linked reagent.)

The target of test [1] is T1, 3T3 cells that over-express human cMet (Homo sapiens, UniProt P08581).
T1 construct: expressed in transfected cells; host or cells: 3T3 cells
Nature of the test: Whole cell ELISA of peptide-displaying phage. Format: cell-based. The note with it: phage isolate; 3T3 cells expressing human cMet vs. non-expressing 3T3 cells. An outline of the steps: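 3T3 cells over-expressing human cMet seeded 10^5/well, pelleted and fixed with 0.1% glutaraldehyde 12 min at 37 °C. Blocked peptide-displaying phage bound 1 h at room temperature; after PBST wash, bound phage detected with HRP-conjugated anti-M13 antibody.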

cMet-Fc fusion protein, sequence (P08581 25-307 limits assumed): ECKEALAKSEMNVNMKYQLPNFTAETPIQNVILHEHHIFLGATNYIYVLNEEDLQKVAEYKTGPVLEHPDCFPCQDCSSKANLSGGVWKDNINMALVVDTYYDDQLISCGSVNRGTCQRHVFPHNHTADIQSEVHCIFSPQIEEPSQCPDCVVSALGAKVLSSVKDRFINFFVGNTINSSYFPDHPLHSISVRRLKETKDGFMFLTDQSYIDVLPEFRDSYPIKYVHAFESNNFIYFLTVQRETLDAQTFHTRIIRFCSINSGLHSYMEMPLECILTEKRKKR
cMet-Fc fusion protein, sequence (P08581 with tags, fused parts or gaps limits assumed): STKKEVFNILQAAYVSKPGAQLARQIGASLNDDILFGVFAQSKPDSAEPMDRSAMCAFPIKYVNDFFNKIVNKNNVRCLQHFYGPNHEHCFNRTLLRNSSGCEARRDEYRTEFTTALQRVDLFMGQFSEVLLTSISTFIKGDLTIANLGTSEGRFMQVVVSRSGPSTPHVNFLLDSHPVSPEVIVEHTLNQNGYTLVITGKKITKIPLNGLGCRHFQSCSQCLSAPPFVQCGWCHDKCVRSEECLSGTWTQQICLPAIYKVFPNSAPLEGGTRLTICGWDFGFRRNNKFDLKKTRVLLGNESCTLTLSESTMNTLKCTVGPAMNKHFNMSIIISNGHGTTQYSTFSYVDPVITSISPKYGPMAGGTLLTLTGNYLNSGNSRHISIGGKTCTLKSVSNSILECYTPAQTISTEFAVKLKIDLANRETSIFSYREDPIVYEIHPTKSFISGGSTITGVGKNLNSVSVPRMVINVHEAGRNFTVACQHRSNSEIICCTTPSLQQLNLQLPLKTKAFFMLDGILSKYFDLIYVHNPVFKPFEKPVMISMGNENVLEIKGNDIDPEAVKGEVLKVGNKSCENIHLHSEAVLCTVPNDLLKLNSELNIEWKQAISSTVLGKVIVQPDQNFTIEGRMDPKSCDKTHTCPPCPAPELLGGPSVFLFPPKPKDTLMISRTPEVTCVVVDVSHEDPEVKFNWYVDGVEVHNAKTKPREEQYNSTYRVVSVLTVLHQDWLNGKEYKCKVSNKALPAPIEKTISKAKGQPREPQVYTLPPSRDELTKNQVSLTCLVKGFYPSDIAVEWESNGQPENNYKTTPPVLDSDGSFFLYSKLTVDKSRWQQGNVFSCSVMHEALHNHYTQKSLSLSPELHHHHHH
T1 sequence (P08581 25-1390): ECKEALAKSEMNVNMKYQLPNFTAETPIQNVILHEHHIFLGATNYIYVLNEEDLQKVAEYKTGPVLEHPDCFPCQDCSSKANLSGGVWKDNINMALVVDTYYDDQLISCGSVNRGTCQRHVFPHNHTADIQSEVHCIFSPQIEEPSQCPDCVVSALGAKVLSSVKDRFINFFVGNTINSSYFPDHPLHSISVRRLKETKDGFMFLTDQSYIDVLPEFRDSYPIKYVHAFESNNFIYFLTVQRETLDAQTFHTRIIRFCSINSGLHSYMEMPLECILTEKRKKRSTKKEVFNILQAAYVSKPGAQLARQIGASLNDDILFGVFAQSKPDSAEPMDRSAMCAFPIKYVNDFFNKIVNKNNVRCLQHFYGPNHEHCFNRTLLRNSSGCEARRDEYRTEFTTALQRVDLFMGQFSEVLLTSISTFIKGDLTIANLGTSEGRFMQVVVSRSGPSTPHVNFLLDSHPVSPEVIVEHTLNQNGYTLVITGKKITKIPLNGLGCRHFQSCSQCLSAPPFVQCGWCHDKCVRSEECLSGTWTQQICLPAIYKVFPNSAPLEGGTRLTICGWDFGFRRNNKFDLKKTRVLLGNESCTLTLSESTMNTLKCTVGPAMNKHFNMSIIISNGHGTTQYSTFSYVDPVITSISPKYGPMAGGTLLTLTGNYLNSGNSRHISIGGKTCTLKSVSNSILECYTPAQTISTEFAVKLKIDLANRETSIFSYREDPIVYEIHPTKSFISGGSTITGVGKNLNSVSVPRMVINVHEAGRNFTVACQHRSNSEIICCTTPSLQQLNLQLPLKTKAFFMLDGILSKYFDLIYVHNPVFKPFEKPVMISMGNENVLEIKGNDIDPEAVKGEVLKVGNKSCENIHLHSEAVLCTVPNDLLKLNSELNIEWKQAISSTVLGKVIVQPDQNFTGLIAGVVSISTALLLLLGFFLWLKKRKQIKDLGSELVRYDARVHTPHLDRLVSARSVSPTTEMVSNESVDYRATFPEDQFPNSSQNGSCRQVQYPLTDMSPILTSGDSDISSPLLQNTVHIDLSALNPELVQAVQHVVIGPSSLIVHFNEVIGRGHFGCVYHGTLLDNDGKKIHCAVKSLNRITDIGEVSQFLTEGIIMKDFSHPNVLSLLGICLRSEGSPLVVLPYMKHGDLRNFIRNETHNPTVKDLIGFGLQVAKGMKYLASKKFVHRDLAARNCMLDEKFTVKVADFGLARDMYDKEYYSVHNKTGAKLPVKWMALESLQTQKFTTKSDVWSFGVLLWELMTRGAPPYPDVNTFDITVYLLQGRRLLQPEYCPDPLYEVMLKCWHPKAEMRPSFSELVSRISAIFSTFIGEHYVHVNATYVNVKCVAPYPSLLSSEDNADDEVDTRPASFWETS

“AGIWFCNNEEKSCWAYGT (Synthetically generated cMet-binding peptide sequence) [SEQ ID NO: 040]”: the “Protein ELISA” value in the test with cMet-Fc fusion protein is given as 3.0 fold over background. For the same compound, in test [1], the “WC ELISA” value stood at 1.37 fold over background.
In the same order, the values of `CC[C@H](C)[C@H](NC(=O)[C@H](C)NC(=O)[C@H](CCC(=O)O)NC(=O)[C@H](C)NC(=O)[C@@H](NC(=O)CNC(=O)[C@@H](NC(=O)[C@H](CCC(N)=O)NC(=O)[C@H](C)NC(C)=O)C(C)C)[C@@H](C)O)C(=O)N[C@@H](CCSC)C(=O)N[C@@H](Cc1ccccc1)C(=O)N[C@@H](CO)C(=O)N[C@@H](CC(=O)O)C(=O)N[C@H](C(=O)N[C@@H](CCC(=O)O)C(=O)N[C@@H](CC(=O)O)C(=O)N[C@H](C(=O)NCC(=O)N[C@H](C(=O)N[C@@H](Cc1c[nH]cn1)C(=O)N[C@@H](CCCCN)C(=O)N[C@@H](Cc1ccccc1)C(=O)NCC(=O)NCC(=O)NCC(=O)N[C@@H](CCCCNC(=O)c1ccc2c(c1)C(=O)OC21c2ccc(O)cc2Oc2cc(O)ccc21)C(N)=O)C(C)C)[C@@H](C)O)C(C)C` [SEQ ID NO: 459] are 5.7 fold over background and 1.33 fold over background.
In the same order, the values of “GDGFLCRWENGWCEFWDP (Synthetically generated cMet-binding peptide sequence) [SEQ ID NO: 047]” are 4.7 fold over background and 1.30 fold over background.
In the same order, the values of “AGKQWCVVWEETCDQLGT (Synthetically generated cMet-binding peptide sequence) [SEQ ID NO: 039]” are 3.7 fold over background and 1.33 fold over background.
For the compound `CC[C@H](C)[C@H](NC(=O)[C@H](CCC(N)=O)NC(=O)[C@H](CCCNC(=N)N)NC(=O)CNC(=O)[C@H](CO)NC(=O)[C@H](CC(=O)O)NC(=O)[C@H](CC(=O)O)NC(=O)[C@@H](NC(=O)[C@@H]1CCCN1C(=O)[C@H](Cc1ccccc1)NC(=O)[C@@H](NC(=O)[C@H](Cc1ccc(O)cc1)NC(=O)[C@@H]1CCCN1C(=O)[C@H](CO)NC(=O)[C@H](CCC(N)=O)NC(=O)[C@H](C)NC(C)=O)[C@@H](C)CC)[C@@H](C)CC)C(=O)N[C@@H](Cc1ccccc1)C(=O)N[C@H](C(=O)N[C@H](C(=O)N[C@@H](CCC(N)=O)C(=O)N[C@@H](Cc1c[nH]c2ccccc12)C(=O)NCC(=O)NCC(=O)NCC(=O)NCC(=O)N[C@@H](CCCCNC(=O)c1ccc2c(c1)C(=O)OC21c2ccc(O)cc2Oc2cc(O)ccc21)C(N)=O)[C@@H](C)CC)C(C)C` [SEQ ID NO: 463], the “Protein ELISA” value at cMet-Fc fusion protein amounted to 4.4 fold over background. Further, in test [1], the “WC ELISA” value is 1.23 fold over background.
In the same order, the values of `CC[C@H](C)[C@H](NC(=O)[C@H](Cc1c[nH]c2ccccc12)NC(=O)CNC(=O)[C@H](C)NC(C)=O)C(=O)N[C@@H](CO)C(=O)N[C@H]1CSSC[C@@H](C(=O)N[C@@H](Cc2c[nH]c3ccccc23)C(=O)N2CCC[C@H]2C(=O)NCC(=O)NCC(=O)N[C@H](C(=O)NCC(=O)NCC(=O)NCC(=O)N[C@@H](CCCCNC(=O)c2ccc3c(c2)C(=O)OC32c3ccc(O)cc3Oc3cc(O)ccc32)C(N)=O)[C@@H](C)O)NC(=O)[C@H](C)NC(=O)[C@H](Cc2ccccc2)NC(=O)[C@H]([C@@H](C)O)NC(=O)[C@@H]2CCCN2C(=O)[C@@H]2CCCN2C(=O)CNC(=O)[C@H](C)NC1=O` [SEQ ID NO: 056] are 14.3 fold over background and 1.23 fold over background.
On to “AQKTWFLEADLFQMFQEVTWQF (Synthetically generated cMet-binding peptide sequence) [SEQ ID NO: 490]”, for which the “Protein ELISA” value in the test with cMet-Fc fusion protein is listed as 3.0 fold over background. Besides, the “WC ELISA” value in test [1] came to 1.40 fold over background.
In the same order, the values of “ADAWMCEYFQWNCGDKGT (Synthetically generated cMet-binding peptide sequence) [SEQ ID NO: 046]” are 4.5 fold over background and 1.33 fold over background.
On to “AGLYLCDLSIMYCFFQGT (Synthetically generated cMet-binding peptide sequence) [SEQ ID NO: 015]”, for which, in the test with cMet-Fc fusion protein, the “Protein ELISA” value is 4.3 fold over background. Also, the “WC ELISA” value in test [1] is listed as 1.33 fold over background.
In the same order, the values of “AGTIRCNLAMMVCMFEGT (Synthetically generated cMet-binding peptide sequence) [SEQ ID NO: 028]” are 3.6 fold over background and 1.43 fold over background.
In the same order, the values of “AGYSVCKGYPSFECAFFGT (Synthetically generated cMet-binding peptide sequence) [SEQ ID NO: 075]” are 5.8 fold over background and 1.33 fold over background.
In the same order, the values of “AGYWDCKGPPHFFCEWHGT (Synthetically generated cMet-binding peptide sequence) [SEQ ID NO: 080]” are 7.4 fold over background and 1.23 fold over background.
As to “AGQFYCSGPPTFQCIMIGT (Synthetically generated cMet-binding peptide sequence) [SEQ ID NO: 089]”, the “Protein ELISA” value in the test with cMet-Fc fusion protein is 12.4 fold over background. In addition, the “WC ELISA” value in test [1] is recorded as 1.23 fold over background.
The corresponding values for “AGYYGCKGPPTFECQWMGT (Synthetically generated cMet-binding peptide sequence) [SEQ ID NO: 049]” are 13.8 fold over background and 1.33 fold over background.
The corresponding values for “GSLIFCPYGECMMYAP (Synthetically generated cMet-binding peptide sequence) [SEQ ID NO: 005]” are 3.5 fold over background and 1.33 fold over background.
The corresponding values for `CC(=O)N[C@@H](C)C(=O)NCC(=O)N[C@@H](CO)C(=O)N[C@@H](Cc1c[nH]c2ccccc12)C(=O)N[C@@H](Cc1c[nH]cn1)C(=O)N[C@H]1CSSC[C@@H](C(=O)N[C@@H](Cc2c[nH]c3ccccc23)C(=O)N[C@@H](CCC(=O)O)C(=O)N[C@@H](Cc2ccccc2)C(=O)NCC(=O)N[C@H](C(=O)NCC(=O)NCC(=O)NCC(=O)N[C@@H](CCCCNC(=O)c2ccc3c(c2)C(=O)OC32c3ccc(O)cc3Oc3cc(O)ccc32)C(N)=O)[C@@H](C)O)NC(=O)[C@H](CCC(=O)O)NC(=O)[C@H](Cc2ccccc2)NC(=O)[C@H](CO)NC(=O)[C@@H]2CCCN2C(=O)[C@@H]2CCCN2C(=O)CNC(=O)[C@H](C)NC1=O` [SEQ ID NO: 055] are 18.3 fold over background and 1.47 fold over background.
For “GSFILCWWTFCDTNAP (Synthetically generated cMet-binding peptide sequence) [SEQ ID NO: 007]”, in the test with cMet-Fc fusion protein, the “Protein ELISA” value is listed as 3.4 fold over background. For the same compound, the “WC ELISA” value in test [1] was determined as 1.30 fold over background.
With `CSCC[C@H](NC(=O)CNC(=O)[C@@H]1CCCN1C(=O)[C@H](CO)NC(=O)[C@H](CO)NC(=O)[C@H](Cc1c[nH]c2ccccc12)NC(=O)[C@H](CCCNC(=N)N)NC(=O)[C@H](CCC(N)=O)NC(=O)[C@H](C)NC(C)=O)C(=O)N[C@@H](CO)C(=O)N[C@@H](CCC(N)=O)C(=O)N[C@@H](CO)C(=O)N[C@@H](Cc1ccccc1)C(=O)N[C@H](C(=O)N[C@@H](CC(C)C)C(=O)N[C@@H](CCC(=O)O)C(=O)N[C@@H](Cc1c[nH]c2ccccc12)C(=O)N[C@@H](CCCCN)C(=O)N[C@@H](Cc1c[nH]c2ccccc12)C(=O)N[C@@H](CC(N)=O)C(=O)N[C@@H](CC(=O)O)C(=O)N[C@@H](CC(N)=O)C(=O)NCC(=O)NCC(=O)NCC(=O)N[C@@H](CCCCNC(=O)c1ccc2c(c1)C(=O)OC21c2ccc(O)cc2Oc2cc(O)ccc21)C(N)=O)C(C)C` [SEQ ID NO: 453], the “Protein ELISA” value on cMet-Fc fusion protein came to 11.3 fold over background. In addition, the “WC ELISA” value in test [1] worked out at 1.30 fold over background.
The corresponding values for `CC(=O)N[C@@H](C)C(=O)N[C@@H](CCC(N)=O)C(=O)N[C@@H](Cc1c[nH]cn1)C(=O)N[C@@H](Cc1c[nH]c2ccccc12)C(=O)N[C@@H](CC(=O)O)C(=O)N[C@@H](Cc1ccc(O)cc1)C(=O)N[C@@H](CC(=O)O)C(=O)N[C@@H](CO)C(=O)NCC(=O)N[C@@H](CO)C(=O)N[C@@H](CC(=O)O)C(=O)N[C@@H](Cc1ccccc1)C(=O)N[C@@H](Cc1c[nH]c2ccccc12)C(=O)N[C@@H](Cc1ccccc1)C(=O)N1CCC[C@H]1C(=O)N[C@H](C(=O)N[C@@H](Cc1ccccc1)C(=O)N[C@@H](Cc1ccccc1)C(=O)N[C@@H](CC(C)C)C(=O)N[C@@H](CCC(=O)O)C(=O)N[C@@H](Cc1c[nH]cn1)C(=O)N[C@@H](Cc1c[nH]cn1)C(=O)NCC(=O)NCC(=O)NCC(=O)N[C@@H](CCCCNC(=O)c1ccc2c(c1)C(=O)OC21c2ccc(O)cc2Oc2cc(O)ccc21)C(N)=O)C(C)C` [SEQ ID NO: 475] are 3.5 fold over background and 1.30 fold over background.
The corresponding values for “GSEYSCRTSRCIFSAP (Synthetically generated cMet-binding peptide sequence) [SEQ ID NO: 006]” are 3.2 fold over background and 1.33 fold over background.
As to “AGQFKCAGPPSFACWMTGT (Synthetically generated cMet-binding peptide sequence) [SEQ ID NO: 050]”, the “Protein ELISA” value with cMet-Fc fusion protein came out at 14.8 fold over background. The “WC ELISA” value in test [1] came out at 1.43 fold over background.
